# Molecular target: Grb2 SH2 (UniProt P62993)
# Experiment: SH2 binding enrichment of the phosphorylated peptide, bacterial display (enrichment ratio); higher = better substrate or ligand; peptides without Tyr show the background
# 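For SH2 binding enrichment of the phosphorylated peptide, bacterial display in this document: peptide library displayed on the E. coli surface as eCPX fusions, selected cells deep-sequenced, score is each peptide's frequency after selection divided by its frequency in the input.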
# 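For phosphorylation enrichment, bacterial display in this document: 11-residue human phosphosite peptides and single-mutation variants displayed on the E. coli surface, counted by deep sequencing, each peptide's frequency after selection divided by its frequency in the unselected input library; frequency after pTyr selection over input frequency; kinase dosed for 20-30% of maximal phosphorylation in three min.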
# Chain of Grb2 SH2 (P62993 whole entry, looked up): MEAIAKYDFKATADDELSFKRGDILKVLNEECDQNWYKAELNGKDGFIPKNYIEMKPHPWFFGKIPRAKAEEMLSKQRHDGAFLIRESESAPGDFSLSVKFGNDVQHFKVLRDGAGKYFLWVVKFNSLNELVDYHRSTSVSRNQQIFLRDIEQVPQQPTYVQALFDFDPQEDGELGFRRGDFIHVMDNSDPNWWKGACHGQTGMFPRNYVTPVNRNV
row,Sequence,SH2 binding enrichment
1,EDDIIYTQDFT [STK11_Y362],0.767
2,LDAGEYCVPRG [BEX1_Y43],0.844
3,NKEAIYSGFIR [SMCHD1_Y283_YF],0.713
4,IATAIYSGDKI [UGGT2_Y823],0.796
5,GPKFGYDEIDN [ACOX1_Y232],0.845
6,INSLKYAFNIS [EIF2B5_Y583_YF],0.944
7,HSREDYFECFQ [ZIM2_Y411_Q408R],0.786
8,PRLMLYNPTTY [EGFR_Y270_P266R],1.16
9,FPPTHYIRRVP [SLC4A11_Y820_YF],0.644
10,ATVRPYRPYII [LRP5_Y1528_A1525V],0.765
11,PLFKICVAELI [MRPL28_Y230_Y230C],0.926
12,FEREQYADRTR [RBM4_Y355_A359T_YF],0.859
13,PPAPRYHHSAV [LZTR1_Y119],1.31
14,TLNHQYDYTFH [CSNK1A1_Y292_D297H],1.01
15,KDFNKYVAYIE [KDM4B_Y31],0.83
16,SDVDLYQVRTA [PSMD9_Y70],0.705
17,DVRQEYSGMIL [PLXND1_Y616_P617S],0.696
18,DENWFYTRPAS [RPS19_Y54_A57P],0.78
19,HPWPRYTTRAP [FNDC1_Y1281_Q1280R],0.684
20,TFGQVYKGPHV [TNIK_Y40_R43P_YF],0.69
21,LLVVVYKFRCF [PSEN1_Y154_L153V_YF],1.96
22,QQLDEYQELLD [LMNA_Y359],0.798
23,RVKTPYSLKRW [BMPR2_Y979],1.95
24,ADRTRYSAFGG [RBM4_Y361_A359T],0.897
25,ADEEYYEIIAA [FEStide_no-pY_2014],0.956
26,TKDTFYKQPMV [GBA_Y451_F456V],0.781
27,TENAGYYFRIS,0.574
28,FHKALYTVRSF [PDE6C_Y266_YF],0.784
29,DMLTLYVNTAA [SMCHD1_Y403_Q400L],5.64

# Molecular target: Fyn (UniProt P06241)
# Experiment: phosphorylation enrichment, bacterial display (enrichment ratio); higher = better substrate or ligand; peptides without Tyr show the background
# Chain of Fyn (P06241 whole entry, looked up): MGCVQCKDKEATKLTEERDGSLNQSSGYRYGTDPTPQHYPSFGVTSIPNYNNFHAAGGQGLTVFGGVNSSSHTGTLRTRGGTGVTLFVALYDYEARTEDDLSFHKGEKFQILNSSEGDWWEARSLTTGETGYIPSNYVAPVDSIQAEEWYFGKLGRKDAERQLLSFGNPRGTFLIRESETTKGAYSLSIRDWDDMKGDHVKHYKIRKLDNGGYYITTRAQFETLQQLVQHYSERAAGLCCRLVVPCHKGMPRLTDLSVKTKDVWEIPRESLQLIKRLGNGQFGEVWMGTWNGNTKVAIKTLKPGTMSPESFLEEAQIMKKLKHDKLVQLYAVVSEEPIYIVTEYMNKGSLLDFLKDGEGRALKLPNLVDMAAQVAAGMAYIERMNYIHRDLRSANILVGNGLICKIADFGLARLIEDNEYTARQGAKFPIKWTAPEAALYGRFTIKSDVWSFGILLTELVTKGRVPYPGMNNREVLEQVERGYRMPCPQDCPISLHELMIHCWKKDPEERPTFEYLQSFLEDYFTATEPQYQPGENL
row,Sequence,phosphorylation enrichment
1,EDDIIYTQDFT [STK11_Y362],0.796
2,LDAGEYCVPRG [BEX1_Y43],1.26
3,NKEAIYSGFIR [SMCHD1_Y283_YF],14.5
4,IATAIYSGDKI [UGGT2_Y823],2.11
5,GPKFGYDEIDN [ACOX1_Y232],0.406
6,INSLKYAFNIS [EIF2B5_Y583_YF],0.311
7,HSREDYFECFQ [ZIM2_Y411_Q408R],0.598
8,PRLMLYNPTTY [EGFR_Y270_P266R],0.601
9,FPPTHYIRRVP [SLC4A11_Y820_YF],0.473
10,ATVRPYRPYII [LRP5_Y1528_A1525V],0.518
11,PLFKICVAELI [MRPL28_Y230_Y230C],0.73
12,FEREQYADRTR [RBM4_Y355_A359T_YF],0.412
13,PPAPRYHHSAV [LZTR1_Y119],0.457
14,TLNHQYDYTFH [CSNK1A1_Y292_D297H],0.536
15,KDFNKYVAYIE [KDM4B_Y31],0.365
16,SDVDLYQVRTA [PSMD9_Y70],1.41
17,DVRQEYSGMIL [PLXND1_Y616_P617S],0.434
18,DENWFYTRPAS [RPS19_Y54_A57P],0.497
19,HPWPRYTTRAP [FNDC1_Y1281_Q1280R],0.796
20,TFGQVYKGPHV [TNIK_Y40_R43P_YF],0.493
21,LLVVVYKFRCF [PSEN1_Y154_L153V_YF],0.359
22,QQLDEYQELLD [LMNA_Y359],0.669
23,RVKTPYSLKRW [BMPR2_Y979],0.582
24,ADRTRYSAFGG [RBM4_Y361_A359T],0.413
25,ADEEYYEIIAA [FEStide_no-pY_2014],2.17
26,TKDTFYKQPMV [GBA_Y451_F456V],0.358
27,TENAGYYFRIS,0.477
28,FHKALYTVRSF [PDE6C_Y266_YF],0.43
29,DMLTLYVNTAA [SMCHD1_Y403_Q400L],0.457

# Source: the supplement of paper PMC10065799, “High-throughput profiling of sequence recognition by tyrosine kinases and SH2 domains using bacterial peptide display” (eLife, 2023)
